Experimental data: the supplement of paper PMC10065799, “High-throughput profiling of sequence recognition by tyrosine kinases and SH2 domains using bacterial peptide display” (eLife, 2023)
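Note: 11-residue human phosphosite peptides and single-mutation variants displayed on the E. coli surface, counted by deep sequencing, each peptide's frequency after selection divided by its frequency in the unselected input library; frequency after pTyr selection over input frequency; kinase dosed for 20-30% of maximal phosphorylation in three min.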

Each sequence was assayed on AncSZ (assay: phosphorylation enrichment, bacterial display (enrichment ratio); higher = better substrate or ligand; peptides without Tyr show the background).
In the case of SSEYHYVGGFY [CTSC_Y347], the phosphorylation enrichment is reported as 3.53.
Sequence PHMQTYEVDHN [SDHB_Y61_L65H] has a phosphorylation enrichment of 1.31.
IGEVVYQWAVM [GRIN2A_Y502_R504W] was tested, and the phosphorylation enrichment was 2.06.
Work on LTGIAYGLPHW [SLC22A14_Y291_S292G] yielded a phosphorylation enrichment of 1.16.
NDTAGYFVIGG [SEL1L3_Y399_I401V] was tested, and the phosphorylation enrichment was 1.17.
For SLNAVYPRAGR [OAS3_Y376_S381R], the phosphorylation enrichment was 0.763.
In the case of KFVKMCDNHQL [MYO9A_Y203_Y203C_YF], the phosphorylation enrichment is reported as 0.483.
Work on FMGVEYSSCDT [EPHA3_Y937_T933M] yielded a phosphorylation enrichment of 1.32.
Work on GNLLIYTDFGK [HGD_Y166_E168D] yielded a phosphorylation enrichment of 1.08.
DSDTDYGSGYP [RNASEH2A_Y206_L202S] showed a phosphorylation enrichment of 1.36.
Sequence ASLLPYFPAIM [IPO4_Y518] has a phosphorylation enrichment of 0.782.
WNGDKYAATTT [TRIM39_Y439] gave a phosphorylation enrichment of 0.717.
QGQHWYSSSDK [CASP10_Y9] showed a phosphorylation enrichment of 0.826.
HVIKLFGACSQ [RET_Y791_Y791F] gave a phosphorylation enrichment of 1.52.
RRNTYYASIAK [ACADM_Y353] was tested, and the phosphorylation enrichment was 0.902.
IENPQYFSDAC [NTRK1_Y496] was tested, and the phosphorylation enrichment was 1.13.
With KGERGYPGTLG [COL4A1_Y348_P352L] the phosphorylation enrichment was 0.597.
SSLEDYVRETN [GIMAP6_Y176_G171S] gave a phosphorylation enrichment of 1.03.
Sequence SIKDKYVTALC [KCNH2_Y611_Y616C] has a phosphorylation enrichment of 0.64.
In the case of KPVDTYYDSTR [DYNC2H1_Y2230_M2227V], the phosphorylation enrichment is reported as 0.808.
With TNYRFYLRSLE [MTM1_Y71_L70F] the phosphorylation enrichment was 1.19.
RDLTHYLMKIL [ACTG1_Y188_D187H] was tested, and the phosphorylation enrichment was 1.27.
Sequence ASTDYYKRGDF [PDHA1_Y243] has a phosphorylation enrichment of 0.685.
Sequence QGQHWYSSSDT [CASP10_Y9_K14T] has a phosphorylation enrichment of 1.09.
In the case of NNHGNYIVHLG [ETFDH_Y172_R175H], the phosphorylation enrichment is reported as 0.71.
YADPYYDYEIE [ZC3H18_Y372] showed a phosphorylation enrichment of 1.95.
KLFFIYTSGTT [SLC27A4_Y245_YF] showed a phosphorylation enrichment of 1.16.
Sequence CTTIHDNYMCN [TP53_Y234_Y234D] has a phosphorylation enrichment of 0.817.
With HESEIYCKVCF [CSRP3_Y57_YF] the phosphorylation enrichment was 1.52.
NDFGNYSNQSS [HNRNPA1_Y318_N319S] was tested, and the phosphorylation enrichment was 1.02.
In the case of RDMMDYMPQGV [CYP21A2_Y259_L261P], the phosphorylation enrichment is reported as 1.41.
EMTRNYIIFIE [BCO2_Y294_G289E] showed a phosphorylation enrichment of 1.1.
For ADLAKYICENQ [ALB_Y287], the phosphorylation enrichment was 0.979.

The sequences below were run against Jak2 (UniProt O60674) in the same assay as above.
Jak2, sequence (O60674 whole entry, looked up): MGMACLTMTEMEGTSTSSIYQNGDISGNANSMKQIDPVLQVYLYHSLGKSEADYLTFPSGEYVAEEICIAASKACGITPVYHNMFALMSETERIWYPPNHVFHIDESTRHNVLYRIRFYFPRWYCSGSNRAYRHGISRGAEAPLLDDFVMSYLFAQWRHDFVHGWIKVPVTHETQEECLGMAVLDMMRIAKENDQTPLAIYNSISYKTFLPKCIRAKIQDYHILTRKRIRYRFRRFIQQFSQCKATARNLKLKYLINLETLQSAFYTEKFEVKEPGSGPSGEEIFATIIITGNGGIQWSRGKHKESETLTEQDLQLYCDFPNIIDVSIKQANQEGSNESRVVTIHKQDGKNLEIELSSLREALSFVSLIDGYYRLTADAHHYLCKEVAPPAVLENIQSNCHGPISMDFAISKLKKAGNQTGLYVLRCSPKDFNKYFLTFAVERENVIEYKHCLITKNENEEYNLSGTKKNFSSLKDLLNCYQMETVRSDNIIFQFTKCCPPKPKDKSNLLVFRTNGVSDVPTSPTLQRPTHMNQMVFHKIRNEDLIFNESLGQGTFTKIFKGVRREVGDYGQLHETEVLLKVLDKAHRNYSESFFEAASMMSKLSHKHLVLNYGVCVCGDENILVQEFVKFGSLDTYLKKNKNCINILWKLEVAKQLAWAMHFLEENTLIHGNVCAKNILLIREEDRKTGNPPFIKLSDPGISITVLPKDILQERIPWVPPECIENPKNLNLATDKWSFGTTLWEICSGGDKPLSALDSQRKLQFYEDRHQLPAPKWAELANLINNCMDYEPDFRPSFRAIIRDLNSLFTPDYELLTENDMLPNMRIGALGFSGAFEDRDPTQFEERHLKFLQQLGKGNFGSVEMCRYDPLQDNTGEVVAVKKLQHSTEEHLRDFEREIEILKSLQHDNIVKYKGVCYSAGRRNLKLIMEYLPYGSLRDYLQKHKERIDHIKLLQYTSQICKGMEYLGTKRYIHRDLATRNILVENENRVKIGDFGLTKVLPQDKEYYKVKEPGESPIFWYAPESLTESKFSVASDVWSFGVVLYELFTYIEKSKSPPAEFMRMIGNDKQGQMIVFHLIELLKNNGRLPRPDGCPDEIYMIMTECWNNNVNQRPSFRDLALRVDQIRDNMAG
Work on SSEYHYVGGFY [CTSC_Y347] yielded a phosphorylation enrichment of 2.69.
PHMQTYEVDHN [SDHB_Y61_L65H] was tested, and the phosphorylation enrichment was 0.94.
IGEVVYQWAVM [GRIN2A_Y502_R504W] showed a phosphorylation enrichment of 1.17.
For LTGIAYGLPHW [SLC22A14_Y291_S292G], the phosphorylation enrichment was 0.924.
NDTAGYFVIGG [SEL1L3_Y399_I401V] was tested, and the phosphorylation enrichment was 6.88.
SLNAVYPRAGR [OAS3_Y376_S381R] was tested, and the phosphorylation enrichment was 0.655.
In the case of KFVKMCDNHQL [MYO9A_Y203_Y203C_YF], the phosphorylation enrichment is reported as 0.513.
Work on FMGVEYSSCDT [EPHA3_Y937_T933M] yielded a phosphorylation enrichment of 1.2.
GNLLIYTDFGK [HGD_Y166_E168D] was tested, and the phosphorylation enrichment was 1.09.
With DSDTDYGSGYP [RNASEH2A_Y206_L202S] the phosphorylation enrichment was 1.43.
ASLLPYFPAIM [IPO4_Y518] was tested, and the phosphorylation enrichment was 0.802.
Work on WNGDKYAATTT [TRIM39_Y439] yielded a phosphorylation enrichment of 0.729.
QGQHWYSSSDK [CASP10_Y9] was tested, and the phosphorylation enrichment was 0.645.
Sequence HVIKLFGACSQ [RET_Y791_Y791F] has a phosphorylation enrichment of 0.994.
RRNTYYASIAK [ACADM_Y353] gave a phosphorylation enrichment of 1.12.
For IENPQYFSDAC [NTRK1_Y496], the phosphorylation enrichment was 1.14.
KGERGYPGTLG [COL4A1_Y348_P352L] gave a phosphorylation enrichment of 0.475.
In the case of SSLEDYVRETN [GIMAP6_Y176_G171S], the phosphorylation enrichment is reported as 0.92.
SIKDKYVTALC [KCNH2_Y611_Y616C] was tested, and the phosphorylation enrichment was 0.653.
For KPVDTYYDSTR [DYNC2H1_Y2230_M2227V], the phosphorylation enrichment was 0.756.
For TNYRFYLRSLE [MTM1_Y71_L70F], the phosphorylation enrichment was 1.09.
RDLTHYLMKIL [ACTG1_Y188_D187H] gave a phosphorylation enrichment of 0.477.
In the case of ASTDYYKRGDF [PDHA1_Y243], the phosphorylation enrichment is reported as 0.754.
For QGQHWYSSSDT [CASP10_Y9_K14T], the phosphorylation enrichment was 1.99.
Work on NNHGNYIVHLG [ETFDH_Y172_R175H] yielded a phosphorylation enrichment of 0.583.
In the case of YADPYYDYEIE [ZC3H18_Y372], the phosphorylation enrichment is reported as 1.24.
In the case of KLFFIYTSGTT [SLC27A4_Y245_YF], the phosphorylation enrichment is reported as 1.1.
Sequence CTTIHDNYMCN [TP53_Y234_Y234D] has a phosphorylation enrichment of 0.799.
Work on HESEIYCKVCF [CSRP3_Y57_YF] yielded a phosphorylation enrichment of 1.21.
In the case of NDFGNYSNQSS [HNRNPA1_Y318_N319S], the phosphorylation enrichment is reported as 0.546.
RDMMDYMPQGV [CYP21A2_Y259_L261P] was tested, and the phosphorylation enrichment was 0.986.
With EMTRNYIIFIE [BCO2_Y294_G289E] the phosphorylation enrichment was 1.06.
In the case of ADLAKYICENQ [ALB_Y287], the phosphorylation enrichment is reported as 1.09.
